Data from PMC7347537.

Molecular target: full-length IRG1 from Bacillus subtilis (immune-responsive gene 1, cis-aconitate decarboxylase) (Bacillus subtilis)
Assay: SEC-MALS; Superdex 200 10/300, 20 mM Tris-HCl (pH 8.0), 150 mM NaCl, 0.4 mL/min, room temperature; DAWN-treos MALS detector

stoichiometry N: 2
Substance: full-length IRG1 from Bacillus subtilis (immune-responsive gene 1, cis-aconitate decarboxylase) (enzyme)
